What was measured:
[1] = target: Human non-translating 80S ribosome, puromycin-treated, purified from HeLa cells (human (endogenous in HeLa)) (UniProt P62750); assay: cryo-EM structure; in vivo pulled-out Ebp1-ribosome complex (dataset 1; merged with dataset 2 for the final map): 100 nM 80S ribosomes purified from HeLa cells without addition of recombinant Ebp1; occupancy estimated from computational particle sorting
[2] = target: Human non-translating 80S ribosome, puromycin-treated, purified from HeLa cells (human (endogenous in HeLa)) (UniProt P62750); assay: cryo-EM structure; in vitro reconstituted complex (dataset 2; merged with dataset 1 for the final map): 100 nM purified HeLa 80S ribosomes with an eightfold excess of recombinant Ebp1, SEC buffer (20 mM HEPES KOH pH 7.5, 5 mM Mg(OAc)2, 175 mM KOAc, 1 mM TCEP); occupancy estimated from computational particle sorting

| Substance | fraction of ribosomes decorated with Ebp1 [1] | fraction of ribosomes decorated with Ebp1 [2] |
| --- | --- | --- |
| Endogenous Ebp1 on 80S ribosomes purified from HeLa cells (from UniProt Q9UQ80 1-394) (natural protein) | 25% | – |
| ErbB3 receptor-binding protein (Ebp1), full-length, p48 isoform, recombinant (from UniProt Q9UQ80 1-394) (natural protein) | – | 75% |

From article PMC7005732
